Experimental data published in article PMC11947619, “Molecular mechanism of Mad2 conformational conversion promoted by the Mad2‐interaction motif of Cdc20” (Protein Science : A Publication of the Protein Society, 2025).

B1: Mad2^LL: loop‐less Mad2: residues 109–117 (…) replaced with GSG (protein)
chain: MALQLSREQGITLRGSAEIVAEFFSFGINSILYQRGIYPSETFTRVQKYGLTLLVTTDLELIKYLNNVVEQLKDWLYKCSVQKLVVVISNIESGEVLERWQFDIECDKGSGEKSQKAIQDEIRSVIRQITATVTFLPLLEVSCSFDLLIYTDKDLVVPEKWEESGPQFITNSEEVRLRSFTTTIHKVNSMVAYKIPVND
modifications: left off: His6, N-terminal, state not stated | DoubleStrep, N-terminal, state not stated
notes: loop‐less Mad2: residues 109–117 (…) replaced with GSG

What was measured:
O‐Mad2 = settings: in vitro, ref Lad et al., [2009], Simonetta et al.; cited from earlier work
Source text: Juxtaposing the accessible Cdc20^MIM adjacent to O‐Mad2 by the MCC‐assembly scaffold involves the dimerization of an O‐Mad2 molecule with Mad1‐bound C‐Mad2 (Chen et al., [2023]; Fischer et al., [2022]; Lara‐Gonzalez et al., [2021]; Piano et al., [2021]).

[1] = Spontaneous O-Mad2 to C-Mad2 conversion / stability of the open state; type: physicochemical; settings: NMR backbone assignment samples
Experimental: FIGURE 2 NMR fingerprinting of Mad2. (a) Structural orientations of Trp75 (on the αB helix) and Trp167 (on the “safety‐belt”) in Mad2 produce distinct indole NH resonances. […] NMR spectra for O‐Mad2^R133A and “empty” C‐Mad2^L13A/R133A and C‐Mad2^R133A:Cdc20^MIM‐111‐138 are from Fischer et al. ([2022]) (c) Mad2 conversion rates vary with different MIM peptides. Conversion was traced over 24 h at 25°C using the Trp75 and Trp167 side‐chain resonances as reporters. MIM peptides were added at two‐fold molar excess to Mad2 (100 μM). Each spectrum required 12 min of acquisition time, therefore the 15 min time‐points represent the earliest spectra in the time‐resolved series. The schematics show the conformation of Mad2 as indicated by the tryptophan side‐chain resonances. A black tick marks when conversion is considered complete. NMR data for O‐Mad2^R133A with and without Cdc20^MIM‐111‐138 shown are from Fischer et al. ([2022]). In the case of full‐length Cdc20, the MIM sequence is sequestered by an auto‐inhibitory intramolecular interaction within Cdc20 itself, which prevents it from being readily accessible for binding to C‐Mad2 (Piano et al., [2021]). Conversely, isolated MIM peptides lack this auto‐inhibitory mechanism, allowing them to bind directly to C‐Mad2 without obstruction. […]

Row | Molecule | enhancement of O-Mad2 to C-Mad2 conversion rate by dimerization with C-Mad2 (O‐Mad2) | limited stability (slow O-Mad2 to C-Mad2 conversion) [1]
1 | C‐Mad2: Mad2 in the closed active state | 3 to 4 fold | 
2 | B1 |  | < 3 days
